B1: SETD8 (parent)
chain: KKAQGKTQQNRKLTDFYPVRRSSR
B2: ANKRD40 (parent)
chain: YQELLRVCCCELGVNPDQVEKIRK

Variants of: B1
Assay: protein stability index of a GFP-peptide fusion (GPS, HEK-293T) (PSI 1-6); higher = more stable
Settings: c terminus: a fixed tail appended
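Also: lentivirally expressed fusions sorted by FACS into six bins by GFP to DsRed ratio, PSI derived from sequencing read proportions per bin multiplied by bin number.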

| Variant | protein stability index |
| --- | --- |
| P18T | 3.77 |
| F16N | 4.28 |
| F16G | 2.74 |
| F16C | 2.71 |
| F16I | 2.99 |
| R24C | 3.61 |
| R24M | 3.16 |
| N10A | 1.64 |
| N10R | 2.74 |
| N10P | 2.77 |
| A3S | 3.47 |
| L13K | 5.04 |
| L13N | 3.26 |
| Y17N | 3.09 |
| T14G | 2.68 |
| K6D | 2.54 |
| K6C | 3.03 |
| K6T | 3.58 |
| Q8L | 2.41 |
| Q8E | 1.69 |
| Q9P | 1.78 |
| K1Q | 1.99 |
| K1E | 1.97 |
| R20V | 3.67 |
| K2F | 1.97 |
| K2R | 2.03 |
| K12D | 2.98 |

Variants of: B2
Assay: as above
Settings: c terminus: a fixed tail appended

| Variant | protein stability index |
| --- | --- |
| G13L | 1.62 |
| G13S | 3.16 |
| G13E | 2.42 |
| G13P | 2.06 |
| G13F | 1.55 |
| R6C | 1.92 |
| R6H | 2.11 |
| R6D | 2.56 |
| R6P | 2.02 |
| R6W | 1.58 |
| K24R | 1.6 |
| K24H | 1.59 |
| K24S | 1.66 |
| K24L | 2.07 |
| K24A | 1.36 |
| K24V | 1.61 |
| K24Q | 2.12 |
| K24M | 1.66 |
| K24C | 1 |
| K24G | 2.46 |
| K24T | 2 |
| K21I | 1.81 |
| K21Y | 2.15 |
| K21E | 2.4 |

| Variant | protein stability index |
| --- | --- |
| K21N | 1.85 |
| K21P | 1 |
| K21W | 2.33 |
| D17W | 2.12 |
| D17I | 1.69 |
| D17K | 1.69 |
| D17Q | 2.94 |
| L12P | 2.55 |
| L12G | 2.31 |
| L12R | 1.7 |
| L12W | 1.65 |
| L12Y | 2.24 |
| L12N | 2.86 |
| L12M | 2.05 |
| E11T | 1.98 |
| E11D | 1.89 |
| E11H | 1.79 |
| E11L | 2 |
| E11I | 1.49 |
| C8M | 2.09 |
| C8N | 3.48 |
| C8T | 3.53 |
| C8G | 2.8 |
| C8Y | 2.09 |

| Variant | protein stability index |
| --- | --- |
| C8K | 2.19 |
| Y1I | 1.78 |
| Y1C | 1.95 |
| Y1N | 3.55 |
| Y1Q | 3.28 |
| V7H | 2.59 |
| V7N | 1.96 |
| V7A | 2.15 |
| V7K | 2.23 |
| V7P | 2.5 |
| P16H | 1.43 |
| P16R | 2.41 |
| P16S | 2.06 |
| P16C | 2.52 |
| P16Q | 2.5 |
| P16A | 1.81 |
| P16E | 2.14 |
| V19S | 1.66 |
| V19P | 2.19 |
| V19K | 2.68 |
| V19M | 2.37 |
| V19R | 1.6 |
| V19G | 1.64 |
| V19N | 1.34 |

| Variant | protein stability index |
| --- | --- |
| V19E | 2.51 |
| Q2S | 1.57 |
| Q2M | 1.76 |
| Q2A | 1.94 |
| Q2N | 2.52 |
| Q2F | 1.44 |
| Q2C | 1.64 |
| Q2K | 2.5 |
| I22S | 2.06 |
| I22G | 2 |
| I22D | 2.25 |
| I22V | 1.41 |
| I22F | 2.44 |
| I22P | 1.18 |
| I22E | 2.14 |
| R23F | 1.55 |
| R23W | 1.72 |
| R23G | 1.56 |
| R23K | 1.25 |
| R23A | 1.91 |
| R23N | 1.93 |
| V14S | 2.32 |
| V14Y | 2.13 |
| V14N | 1.85 |

| Variant | protein stability index |
| --- | --- |
| V14D | 2.88 |
| N15Y | 1.78 |
| N15G | 1.26 |
| N15K | 2.08 |
| N15T | 3.74 |
| N15A | 1.96 |
| N15R | 2.21 |
| N15D | 2.08 |
| E3M | 1.64 |
| E3Q | 1.59 |
| E3I | 1.57 |
| E3D | 1.59 |
| E3P | 2.21 |
| E3F | 1.76 |
| C10P | 2.31 |
| C10T | 2.04 |
| C10M | 2.08 |
| C10R | 2.35 |
| C10H | 2.63 |
| C10V | 2.1 |
| C10I | 1.63 |
| C10W | 1.81 |
| C9H | 2.15 |
| C9D | 3.15 |

| Variant | protein stability index |
| --- | --- |
| L5M | 2.41 |
| L5N | 1.99 |
| L5K | 2.37 |
| L5G | 2.05 |
| L5A | 2.5 |
| L4D | 3.98 |
| L4R | 1.79 |
| L4C | 2.15 |
| L4T | 2.53 |
| Q18G | 2.02 |
| Q18P | 1.4 |
| Q18I | 1.89 |
| Q18N | 2.32 |
| Q18E | 2.13 |
| Q18M | 2.02 |
| E20R | 1.96 |
| E20N | 1.99 |
| E20T | 1.47 |
| E20P | 1.66 |
| E20Q | 1.75 |

From the supplement of paper PMC10567573
